According to PMC4914113, “Another look at the mechanism involving trimeric dUTPases in Staphylococcus aureus pathogenicity island induction involves novel players in the party” (Nucleic Acids Research, 2016):

Columns and labels:
[1] = biological target: Dutϕ11^WT, wild-type dUTPase of phage ϕ11 (Staphylococcus aureus phage ϕ11); test: BLI; as a1, buffer STL supplemented with 5 mM dUMP (baselines and dissociation without nucleotide); 1:1 model
[2] = biological target: Dut80α^ΔV, Dut80α motif V deletion mutant (Staphylococcus aureus phage 80α); test: as above
[3] = biological target: Dut80α^WT, wild-type dUTPase of phage 80α (Staphylococcus aureus phage 80α); test: as above
[4] = biological target: Dutϕ11^WT, wild-type dUTPase of phage ϕ11 (Staphylococcus aureus phage ϕ11); test: BLI; BLItz; His-tagged Dut immobilised at 1 μM on Ni-NTA biosensors, Stl in solution (at least five dilutions, 4 to 0.062 μM); buffer STL (400 mM NaCl, 75 mM HEPES pH 7.5, 5 mM MgCl2, 2 mM DTT); no nucleotide; 1:1 model
[5] = biological target: Dut80α^F165A (Staphylococcus aureus phage 80α); test: as above
[6] = biological target: Dutϕ11^(ΔVI F164A) (Staphylococcus aureus phage ϕ11); test: as above
[7] = biological target: Dut80α^ΔVI, Dut80α lacking motif VI (Staphylococcus aureus phage 80α); test: as above
[8] = biological target: Dut80α^G164S (Staphylococcus aureus phage 80α); test: as above
[9] = biological target: Dut80α^IV-11 (Staphylococcus aureus phage 80α); test: as above
[10] = biological target: Dut80α^WT, wild-type dUTPase of phage 80α (Staphylococcus aureus phage 80α); test: as above
[11] = biological target: Dut80α^Y84I (Staphylococcus aureus phage 80α); test: as above
[12] = biological target: Dutϕ11^ΔV-ΔVI (Staphylococcus aureus phage ϕ11); test: as above
[13] = biological target: Dutϕ11^ΔVI-IV-80α (Staphylococcus aureus phage ϕ11); test: as above
[14] = biological target: Dutϕ11^ΔV, Dutϕ11 motif V deletion mutant (Staphylococcus aureus phage ϕ11); test: as above
[15] = biological target: Dut80α D81A D110C S168C (Staphylococcus aureus phage 80α); test: BLI; as a1 but non-reducing buffer (400 mM NaCl, 75 mM HEPES pH 7.5, 5 mM MgCl2) with 0.5 mM dUPNPP; 1:1 model

“Stl repressor from SaPIbov1 (natural protein)” was tested. Which Kd [1] did it give?
The Kd was 1.93 nM.

And the koff [1]?
Its koff is 5.8e-05 s⁻¹.

And the kon [1]?
Its kon is 30000 M⁻¹ s⁻¹.

What about the Kd [2] of the same substance?
The Kd was 602 nM.

What about the koff [2] of the same substance?
Its koff is 0.005 s⁻¹.

What about the kon [2] of the same substance?
The kon was 8300 M⁻¹ s⁻¹.

What about the Kd [3] of the same substance?
The Kd was 23.5 nM.

And the koff [3]?
The koff was 0.0008 s⁻¹.

What about the kon [3] of the same substance?
Its kon is 34000 M⁻¹ s⁻¹.

And the Kd [4]?
Its Kd is 1.84 nM.

And the koff [4]?
The koff was 9.2e-05 s⁻¹.

What about the kon [4] of the same substance?
The kon was 50000 M⁻¹ s⁻¹.

And the Kd [5]?
Its Kd is 581 nM.

What about the koff [5] of the same substance?
The koff was 0.0157 s⁻¹.

What about the kon [5] of the same substance?
Its kon is 27000 M⁻¹ s⁻¹.

What about the Kd [6] of the same substance?
Its Kd is 131 nM.

And the koff [6]?
Its koff is 0.0021 s⁻¹.

What about the kon [6] of the same substance?
Its kon is 16000 M⁻¹ s⁻¹.

And the Kd [7]?
Its Kd is > 1000 nM.

And the Kd [8]?
Its Kd is 156 nM.

And the koff [8]?
The koff was 0.0047 s⁻¹.

What about the kon [8] of the same substance?
Its kon is 30000 M⁻¹ s⁻¹.

What about the Kd [9] of the same substance?
The Kd was 3.13 nM.

What about the koff [9] of the same substance?
The koff was 0.00021 s⁻¹.

And the kon [9]?
The kon was 67000 M⁻¹ s⁻¹.

And the Kd [10]?
Its Kd is 40 nM.

And the koff [10]?
Its koff is 0.001 s⁻¹.

What about the kon [10] of the same substance?
Its kon is 25000 M⁻¹ s⁻¹.

What about the Kd [11] of the same substance?
The Kd was > 1000 nM.

What about the Kd [12] of the same substance?
The Kd was 111 nM.

And the koff [12]?
The koff was 0.0019 s⁻¹.

And the kon [12]?
Its kon is 17000 M⁻¹ s⁻¹.

What about the Kd [13] of the same substance?
Its Kd is > 1000 nM.

What about the Kd [14] of the same substance?
Its Kd is 1.42 nM.

And the koff [14]?
Its koff is 4e-05 s⁻¹.

What about the kon [14] of the same substance?
Its kon is 28000 M⁻¹ s⁻¹.

And the Kd [15]?
The Kd was 19.3 nM.

And the koff [15]?
Its koff is 0.0011 s⁻¹.

And the kon [15]?
Its kon is 57000 M⁻¹ s⁻¹.
